Data published in patent US7642400B2, “Protein kinase C iota” (Mayo Foundation for Medical Education and Research, priority 2004, dated 2010).

Experiments:
[1] = molecular target: T1, interaction of PKCι polypeptides with PAR6 polypeptides (Homo sapiens, UniProt P41743); assay: Primary screen: FRET assay of PKCι113-YFP-N1 (PYN) and PAR6125-CFP-C1; settings: FIG. 18; less binding as concentration increased
T1 construct: amino acids 1-113 or a full-length PKCι polypeptide; 6xHis; made in house
T1 sequence (P41743 10-122): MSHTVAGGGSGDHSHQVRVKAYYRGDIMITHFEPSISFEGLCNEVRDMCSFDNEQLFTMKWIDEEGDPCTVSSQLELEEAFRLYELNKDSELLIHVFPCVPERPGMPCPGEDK
Protocol: A primary screen was performed as follows to identify test compound having the potential to inhibit the interaction of PKCι polypeptides with PAR6 polypeptides. Bacterially expressed PKCι113-YFP-N1 (PYN) was isolated from the soluble fraction of bacterial lysates by affinity purification according to the manufacturer's protocol (B-PER 6×His Purification Kit; Pierce). The purified polypeptide was dialyzed against Tris buffer (50 mM Tris, pH 8.0; 135 mM NaCl; 10% glycerol; 0.002% EDTA) containing 2 M urea. PAR6125-CFP-C1 recombinant polypeptide was isolated from the inclusion body pellets of bacterial lysates using the B-PER reagent (Pierce) according to the manufacturer's protocol. […] Yields were measured by fluorescence in a SpectraMax Gemini microplate reader (Molecular Devices).
To perform the assay, PYN was diluted to 4000 relative fluorescent units/50 μl in Tris buffer plus 1 M urea, and PAR6125-CFP-C1 was diluted to 400 relative fluorescent units/50 μl Tris buffer plus 1 M urea. […] Fluorescence was measured in a SpectraMax Gemini plate reader. Cyan fluorescence was measured at excitation 395 nm, emission 475 nm, and cutoff of 455 nm. Yellow fluorescence was measured at excitation 395 nm, emission 529, and cutoff of 515=n. […]

[2] = molecular target: T1, interaction of PKCι polypeptides with PAR6 polypeptides; assay: Secondary screen: PYN bound to plate-immobilised biotin-tagged PAR6; format: binding; settings: increasing amounts, e.g. 0, 0.1, 1, 10, 100, and 100 μM
Protocol: Multiple test compounds that were classified as hits in the primary screen as well as additional related compounds were evaluated in a secondary screen designed as follows. Briefly, a 96-well microtiter plate coated with streptavidin (Nunc #436014) was incubated for 2-4 hours at room temperature with 100 μl of a 20-30 μg/ml solution of biotin-tagged PAR6 (whole polypeptide) in phosphate-buffered saline containing Tween-20 (PBST). Plates were washed twice with PBST, then once with incubation buffer (50 mM Tris, pH 8.0; 135 mM NaCl; 10% glycerol; 0.002% EDTA). Incubation buffer (50 μl) was added to each well. The compounds to be tested were added (10 μl) followed by PYN (50 μl) diluted in incubation buffer to an approximate concentration of 4000-5000 relative fluorescent units per 50 μl. Plates were incubated overnight at 4° C. Plates were washed twice with incubation buffer, after which 50 μl incubation buffer was added to retain moisture in the wells. The amount of PYN bound on the plates was determined by measuring yellow fluorescence (532/526) in a Typhoon imager. Fluorescence was quantitated by Softmax Pro software.
A dose-response analysis was performed using the secondary screening assay and increasing amounts (e.g., 0, 0.1, 1, 10, 100, and […]) of gossypol, hexestrol, thimerosal, ebselen, ATG, ATM, ellagic acid, cisplatin, apomorphine, or phenylmercuric acetate.

[3] = test system: A549 cells; assay: Cell invasion through Matrigel-coated chambers, A549 transfectants; format: cell-based, human; settings: A549 cells expressing PKCι(1-113) versus A549/LZRS; FIG. 12F
Protocol: Cell Invasion and Soft Agar Growth Assays: A549 and H1299 transfectants were assayed for cell invasion using Matrigel-coated Transwell cell culture chambers (6,5-mm diameter, 8-μm pore size; BD Biosciences). A549 and H1299 cell transfectants in logarithmic growth phase were harvested with trypsin, the trypsin neutralized with serum-containing medium, and the cells pelleted and resuspended in serum-free growth medium. 2.5×10^4 cells were placed into the upper chamber of the Transwell insert, and growth medium containing 10% FBS was added to the lower chamber. After 22 hours at 37° C. in 5% CO2, non-invasive cells in the upper chambers were removed and invasive cells were fixed in 100% methanol and stained with 0.5% crystal violet (Sigma) in 2% ethanol. Cells which had invaded through the Matrigel-coated filter were counted on a microscope (X40, Olympus) using a calibrated ocular grid.

[4] = test system: A549 cells; assay: Soft agar growth assay (anchorage-independent growth) of A549 cells; format: cell-based, human; settings: A549 cells expressing PKCι(1-113) versus A549/LZRS; FIG. 12G
Protocol: (§1) Anchorage-independent growth was assayed by the ability of cells to form colonies in soft agar. The bottom agar consisted of growth medium containing 10% FBS and 0.75% agarose in 60-mm tissue culture dishes. Nine hundred cells were resuspended in growth medium containing 10% FBS and 0.75% agarose, and plated on top of the bottom agar. The cells were incubated at 37° C. in 5% CO2. Cell colonies were visualized and quantified under a dissecting microscope (Olympus) after 4-6 weeks in culture.
as §1, with “Soft Agar Growth Assays: Anchorage-independent growth” for “Anchorage-independent growth”, “and 0.75% agarose and plated” for “and 0.75% agarose, and plated”, “bottom agar. ATG was added at the indicated concentration to both bottom and top agar solutions. The cells” for “bottom agar. The cells”

[5] = test system: RIE/Ras cells; assay: Soft agar colony formation of RIE/Ras cells; format: cell-based, rat; settings: RIE/Ras/PKCι(1-113) versus RIE/Ras cells; FIG. 9
Description: To assess anchorage-independent growth, RIE cell transfectants were suspended in DMEM supplemented with 10% FBS, 1.5% agarose, and a 1% insulin, transferrin and selenium solution (Sigma-Aldrich), and plated (300 cells/60 mm dish) on a layer of 1.5% agar containing the same medium. Cell colonies were fixed with 20% methanol and stained with Giemsa after 7-14 days in culture and quantified under a dissecting microscope.

[6] = test system: Rac1 activity in A549 cells; assay: Rac1 activity assay (affinity isolation of GTP-bound Rac1) in A549 cells; format: cell-based, human; settings: A549 cells treated with PSI or stably expressing PKCι(1-113); FIG. 12E
Protocol: Rac 1 Activity Assays: Rac1 activity in A549 and H1299 cell transfectants was assessed by affinity isolation of GTP-bound Rac1 using binding domains of PAK as described previously (Sander et al., J. Cell Biol., 143(5):1385-98 (1998)). Briefly, cells were lysed in lysis buffer (50 mM Tris-HCl pH 7.5, 150 mM NaCl, 20 mM MgCl2, 5 mM EGTA, 10% glycerol, 1% Triton X-100, 1% NP-40, 25 mM NaF, 1 mM phenylmethylsulfonyl fluoride, 1 mM sodium orthovanadate, 10 μg/ml leupeptin, 10 μg/ml aprotinin) at 4° C. for 5 min. Cellular debris was removed by centrifugation at 20,000×g for 5 min, and supernatants were transferred to new tubes containing 20 μl of GST-p21-binding domain of PAK1 (PAK1-PBD) coupled to agarose beads (Upstate). An aliquot of each supernatant was reserved to determine total Rac1 and actin expression by immunoblot analysis. Following a 30-minute incubation at 4° C., the agarose beads were collected by centrifugation and washed three times in wash buffer (50 mM Tris-HCl pH 7.5, 150 mM NaCl, 20 mM MgCl2, 5 mM EGTA, 10% glycerol, 1% Triton X-100, 1% NP-40, 25 mM NaF, 1 mM phenylmethylsulfonyl fluoride, 1 mM sodium orthovanadate, 10 μg/ml leupeptin, 10 μg/ml aprotinin). Bound polypeptides were solubilized by the addition of 30 μl of SDS sample buffer, resolved by SDS-PAGE, and subjected to immunoblot analysis for Rac1. An equivalent aliquot of the total cell lysate was subjected to immunoblot analysis to determine total Rac1 expression.
Rac 1 Activity Assays: A549 cells were incubated with the indicated concentration of ATG for one hour prior to analysis. Rac1 activity in A549 cells was assessed by affinity isolation of GTP-bound Rac1 using binding domains of PAK as described elsewhere (Sander et al., J. Cell Biol., 143:1385-98 (1998)). Briefly, cells were lysed in lysis buffer (50 mM Tris-HCl pH 7.5, 150 mM NaCl, 20 mM MgCl2, 5 mM EGTA, 10% glycerol, 1% Triton X-100, 1% NP-40, 25 mM NaF, 1 mM phenylmethylsulfonyl fluoride, 1 mM sodium orthovanadate, 10 μg/ml leupeptin, and 10 μg/ml aprotinin) at 4° C. for 5 min. […]

O=C(O)CC([S-])C(=O)O.[Au+] (stereo not drawn) [ATM, aurothiomaleate]
dose-response in the FRET assay: relative binding of PKCι and PAR6 polypeptides [1]: dose-dependent effect
dose-response analysis using the secondary screening assay [2]: dose-dependent response was detected

B1: PKCι(1-113): first 113 amino acids of PKCι, encompassing the PB1 domain, expressed in cells from a plasmid (protein)
chain: MPTQRDSSTMSHTVAGGGSGDHSHQVRVKAYYRGDIMITHFEPSISFEGLCNEVRDMCSFDNEQLFTMKWIDEEGDPCTVSSQLELEEAFRLYELNKDSELLIHVFPCVPERP
A549 cell invasion [3]: inhibits
anchorage-independent growth in soft agar [4]: inhibits
soft agar colony formation [5]: significantly less soft agar colony formation
Rac1 activity [6]: inhibits Rac1 activity
